Source: publication PMC9482650, “Quantitative fragmentomics allow affinity mapping of interactomes” (Nature Communications, 2022)

T1: APBA3_1, O96018
T1 sequence (O96018 389-490, limits assumed, looked up): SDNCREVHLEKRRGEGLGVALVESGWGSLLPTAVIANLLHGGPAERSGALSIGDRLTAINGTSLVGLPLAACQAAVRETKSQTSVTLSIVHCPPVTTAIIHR

T2: DVL3, Q92997
T2 sequence (Q92997 244-331, limits assumed, looked up): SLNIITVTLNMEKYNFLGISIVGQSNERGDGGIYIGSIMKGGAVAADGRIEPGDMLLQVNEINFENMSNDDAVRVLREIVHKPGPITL

T3: FRMPD1, Q5SYB0
T3 sequence (Q5SYB0 52-145, limits assumed, looked up): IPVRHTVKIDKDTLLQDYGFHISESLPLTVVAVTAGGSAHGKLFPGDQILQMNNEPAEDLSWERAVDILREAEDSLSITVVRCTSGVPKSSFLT

T4: HTRA4, P83105
T4 sequence (P83105 378-476, limits assumed, looked up): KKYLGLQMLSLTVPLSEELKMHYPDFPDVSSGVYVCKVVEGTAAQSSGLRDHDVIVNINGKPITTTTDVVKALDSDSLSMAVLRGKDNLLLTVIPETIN

T5: PDZD7_3, Q9H5P4
T5 sequence (Q9H5P4 857-944, limits assumed, looked up): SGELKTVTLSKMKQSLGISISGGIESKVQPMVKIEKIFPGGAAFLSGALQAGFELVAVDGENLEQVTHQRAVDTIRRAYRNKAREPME

T6: PTPN13_1, Q12923
T6 sequence (Q12923 1088-1188, limits assumed, looked up): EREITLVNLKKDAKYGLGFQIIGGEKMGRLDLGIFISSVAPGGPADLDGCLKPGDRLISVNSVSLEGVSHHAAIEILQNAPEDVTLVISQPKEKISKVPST

T7: RAPGEF6, Q8TEU7
T7 sequence (Q8TEU7 525-625, limits assumed, looked up): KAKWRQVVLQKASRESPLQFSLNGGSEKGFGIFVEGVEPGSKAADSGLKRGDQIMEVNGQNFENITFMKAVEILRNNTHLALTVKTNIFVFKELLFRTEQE

T8: RHPN1, Q8TCX5
T8 sequence (Q8TCX5 508-602, limits assumed, looked up): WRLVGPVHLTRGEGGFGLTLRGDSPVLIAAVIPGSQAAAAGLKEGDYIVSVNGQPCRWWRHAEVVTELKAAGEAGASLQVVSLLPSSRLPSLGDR

T9: SIPA1L2, Q9P2F8
T9 sequence (Q9P2F8 945-1036, limits assumed, looked up): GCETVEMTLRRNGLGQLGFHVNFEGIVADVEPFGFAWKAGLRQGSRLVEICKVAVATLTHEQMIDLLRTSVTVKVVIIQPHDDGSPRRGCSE

T10: SNTG2, Q9NY99
T10 sequence (Q9NY99 68-166, limits assumed, looked up): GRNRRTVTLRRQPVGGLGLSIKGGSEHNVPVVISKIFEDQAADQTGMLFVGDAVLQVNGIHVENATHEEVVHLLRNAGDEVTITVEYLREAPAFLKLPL

T11: TIAM2, Q8IVF5
T11 sequence (Q8IVF5 885-986, limits assumed, looked up): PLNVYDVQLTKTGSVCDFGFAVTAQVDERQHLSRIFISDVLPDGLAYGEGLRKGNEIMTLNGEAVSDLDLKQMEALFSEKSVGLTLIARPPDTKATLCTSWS


Each binder was assayed against T1, APBA3_1, O96018 (assay: holdup assay). Conditions: plain residues with an end cap or a label only (N-terminal biotin on a linker: ado-ado).
Parameters: key: below the threshold = too weak to quantify, mostly under pKd 3.1 to 4

pKd	Binder
below the threshold	DFLSTFHIRI [CIB2, O75838]
below the threshold	GIKKITSTAL [RPS6KA3, P51812]

The binders below were run against ARHGEF12, Q9NZN5-2 (assay: holdup assay). Conditions: plain residues with an end cap or a label only (N-terminal biotin on a linker: ado-ado).
Sequence of ARHGEF12, Q9NZN5-2 (Q9NZN5 other isoform, or with tags, fused parts or gaps): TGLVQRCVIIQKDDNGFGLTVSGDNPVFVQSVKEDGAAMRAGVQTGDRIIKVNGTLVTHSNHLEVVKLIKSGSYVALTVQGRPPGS
Parameters: key: below the threshold = too weak to quantify, mostly under pKd 3.1 to 4

pKd	Binder
below the threshold	DFLSTFHIRI [CIB2, O75838]
5.58	GIKKITSTAL [RPS6KA3, P51812]

The binders below were run against DLG2_3, Q15700 (assay: holdup assay). Conditions: plain residues with an end cap or a label only (N-terminal biotin on a linker: ado-ado).
Parameters: key: below the threshold = too weak to quantify, mostly under pKd 3.1 to 4

pKd	Binder
below the threshold	DFLSTFHIRI [CIB2, O75838]
3.63	GIKKITSTAL [RPS6KA3, P51812]

Each binder was assayed against T2, DVL3, Q92997 (assay: holdup assay). Conditions: plain residues with an end cap or a label only (N-terminal biotin on a linker: ado-ado).
Parameters: key: below the threshold = too weak to quantify, mostly under pKd 3.1 to 4

pKd	Binder
3.59	DFLSTFHIRI [CIB2, O75838]
below the threshold	GIKKITSTAL [RPS6KA3, P51812]

These binders were tested against T3, FRMPD1, Q5SYB0 (assay: holdup assay). Conditions: plain residues with an end cap or a label only (N-terminal biotin on a linker: ado-ado).
Parameters: key: below the threshold = too weak to quantify, mostly under pKd 3.1 to 4

pKd	Binder
below the threshold	DFLSTFHIRI [CIB2, O75838]
below the threshold	GIKKITSTAL [RPS6KA3, P51812]

Each binder was assayed against FRMPD2_1, Q68DX3 (assay: holdup assay). Conditions: plain residues with an end cap or a label only (N-terminal biotin on a linker: ado-ado).
Sequence of FRMPD2_1, Q68DX3 (Q68DX3 770-861): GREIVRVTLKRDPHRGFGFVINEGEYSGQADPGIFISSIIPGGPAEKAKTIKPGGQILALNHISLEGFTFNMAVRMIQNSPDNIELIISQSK
Parameters: key: below the threshold = too weak to quantify, mostly under pKd 3.1 to 4

pKd	Binder
below the threshold	DFLSTFHIRI [CIB2, O75838]
3.54	GIKKITSTAL [RPS6KA3, P51812]

The binders below were run against FRMPD2_2, Q68DX3 (assay: holdup assay). Conditions: plain residues with an end cap or a label only (N-terminal biotin on a linker: ado-ado).
Sequence of FRMPD2_2, Q68DX3 (Q68DX3 944-1038): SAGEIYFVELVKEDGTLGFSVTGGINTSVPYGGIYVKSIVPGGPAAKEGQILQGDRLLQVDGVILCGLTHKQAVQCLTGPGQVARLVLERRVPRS
Parameters: key: below the threshold = too weak to quantify, mostly under pKd 3.1 to 4

pKd	Binder
below the threshold	DFLSTFHIRI [CIB2, O75838]
3.5	GIKKITSTAL [RPS6KA3, P51812]

Each binder was assayed against FRMPD2_3, Q68DX3 (assay: holdup assay). Conditions: plain residues with an end cap or a label only (N-terminal biotin on a linker: ado-ado).
Sequence of FRMPD2_3, Q68DX3 (Q68DX3 1073-1166): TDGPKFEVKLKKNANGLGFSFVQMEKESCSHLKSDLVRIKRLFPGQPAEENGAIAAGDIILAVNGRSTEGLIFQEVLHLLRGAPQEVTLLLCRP
Parameters: key: below the threshold = too weak to quantify, mostly under pKd 3.1 to 4

pKd	Binder
below the threshold	DFLSTFHIRI [CIB2, O75838]
3.5	GIKKITSTAL [RPS6KA3, P51812]

What follows are binders tested against FRMPD4, Q14CM0 (assay: holdup assay). Conditions: plain residues with an end cap or a label only (N-terminal biotin on a linker: ado-ado).
Sequence of FRMPD4, Q14CM0 (Q14CM0 67-160): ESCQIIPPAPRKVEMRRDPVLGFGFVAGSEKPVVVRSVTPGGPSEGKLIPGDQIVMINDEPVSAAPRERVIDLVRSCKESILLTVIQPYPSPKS
Parameters: key: below the threshold = too weak to quantify, mostly under pKd 3.1 to 4

pKd	Binder
below the threshold	DFLSTFHIRI [CIB2, O75838]
4.26	GIKKITSTAL [RPS6KA3, P51812]

Each binder was assayed against GRASP, Q7Z6J2 (assay: holdup assay). Conditions: plain residues with an end cap or a label only (N-terminal biotin on a linker: ado-ado).
Sequence of GRASP, Q7Z6J2 (Q7Z6J2 96-193): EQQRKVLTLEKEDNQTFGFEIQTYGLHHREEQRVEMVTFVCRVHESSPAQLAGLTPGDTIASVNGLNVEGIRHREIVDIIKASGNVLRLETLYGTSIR
Parameters: key: below the threshold = too weak to quantify, mostly under pKd 3.1 to 4

pKd	Binder
3.47	DFLSTFHIRI [CIB2, O75838]
4.68	GIKKITSTAL [RPS6KA3, P51812]

What follows are binders tested against GRIP2_4, Q9C0E4 (assay: holdup assay). Conditions: plain residues with an end cap or a label only (N-terminal biotin on a linker: ado-ado).
Sequence of GRIP2_4, Q9C0E4 (Q9C0E4 446-548): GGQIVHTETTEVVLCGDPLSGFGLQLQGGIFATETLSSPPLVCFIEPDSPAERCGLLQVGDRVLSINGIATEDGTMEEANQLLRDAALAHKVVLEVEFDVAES
Parameters: key: below the threshold = too weak to quantify, mostly under pKd 3.1 to 4

pKd	Binder
below the threshold	DFLSTFHIRI [CIB2, O75838]
below the threshold	GIKKITSTAL [RPS6KA3, P51812]

These binders were tested against T4, HTRA4, P83105 (assay: holdup assay). Conditions: plain residues with an end cap or a label only (N-terminal biotin on a linker: ado-ado).
Parameters: key: below the threshold = too weak to quantify, mostly under pKd 3.1 to 4

pKd	Binder
3.91	DFLSTFHIRI [CIB2, O75838]
below the threshold	GIKKITSTAL [RPS6KA3, P51812]

What follows are binders tested against Inadl_6, Q8NI35 (assay: holdup assay). Conditions: plain residues with an end cap or a label only (N-terminal biotin on a linker: ado-ado).
Sequence of Inadl_6, Q8NI35 (Q8NI35 1058-1167): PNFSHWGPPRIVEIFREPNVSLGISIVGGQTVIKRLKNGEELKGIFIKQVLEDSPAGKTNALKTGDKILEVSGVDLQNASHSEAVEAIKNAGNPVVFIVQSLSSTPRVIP
Parameters: key: below the threshold = too weak to quantify, mostly under pKd 3.1 to 4

pKd	Binder
below the threshold	DFLSTFHIRI [CIB2, O75838]
3.57	GIKKITSTAL [RPS6KA3, P51812]

The binders below were run against Inadl_8, Q8NI35 (assay: holdup assay). Conditions: plain residues with an end cap or a label only (N-terminal biotin on a linker: ado-ado).
Sequence of Inadl_8, Q8NI35 (Q8NI35 1425-1530): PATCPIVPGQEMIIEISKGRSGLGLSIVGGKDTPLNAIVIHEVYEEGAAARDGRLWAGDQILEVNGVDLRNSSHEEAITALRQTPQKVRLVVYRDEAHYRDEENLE
Parameters: key: below the threshold = too weak to quantify, mostly under pKd 3.1 to 4

pKd	Binder
below the threshold	DFLSTFHIRI [CIB2, O75838]
3.62	GIKKITSTAL [RPS6KA3, P51812]

Each binder was assayed against LNX1_1, Q8TBB1 (assay: holdup assay). Conditions: plain residues with an end cap or a label only (N-terminal biotin on a linker: ado-ado).
Sequence of LNX1_1, Q8TBB1 (Q8TBB1 261-371): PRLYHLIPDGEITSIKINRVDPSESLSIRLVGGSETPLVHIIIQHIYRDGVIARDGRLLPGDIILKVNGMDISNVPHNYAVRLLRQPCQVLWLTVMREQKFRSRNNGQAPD
Parameters: key: below the threshold = too weak to quantify, mostly under pKd 3.1 to 4

pKd	Binder
below the threshold	DFLSTFHIRI [CIB2, O75838]
3.8	GIKKITSTAL [RPS6KA3, P51812]

The binders below were run against LNX1_2, Q8TBB1 (assay: holdup assay). Conditions: plain residues with an end cap or a label only (N-terminal biotin on a linker: ado-ado).
Sequence of LNX1_2, Q8TBB1 (Q8TBB1 371-470): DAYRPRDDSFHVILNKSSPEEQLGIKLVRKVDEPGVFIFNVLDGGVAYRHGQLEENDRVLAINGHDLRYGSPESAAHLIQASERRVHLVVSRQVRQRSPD
Parameters: key: below the threshold = too weak to quantify, mostly under pKd 3.1 to 4

pKd	Binder
below the threshold	DFLSTFHIRI [CIB2, O75838]
below the threshold	GIKKITSTAL [RPS6KA3, P51812]

The binders below were run against MAGI2_3, Q86UL8 (assay: holdup assay). Conditions: plain residues with an end cap or a label only (N-terminal biotin on a linker: ado-ado).
Sequence of MAGI2_3, Q86UL8 (Q86UL8 600-682): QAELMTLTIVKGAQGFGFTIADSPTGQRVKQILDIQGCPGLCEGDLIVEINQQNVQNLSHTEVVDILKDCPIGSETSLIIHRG
Parameters: key: below the threshold = too weak to quantify, mostly under pKd 3.1 to 4

pKd	Binder
below the threshold	DFLSTFHIRI [CIB2, O75838]
3.51	GIKKITSTAL [RPS6KA3, P51812]

What follows are binders tested against MAGI2_6, Q86UL8 (assay: holdup assay). Conditions: plain residues with an end cap or a label only (N-terminal biotin on a linker: ado-ado).
Sequence of MAGI2_6, Q86UL8 (Q86UL8 1141-1229): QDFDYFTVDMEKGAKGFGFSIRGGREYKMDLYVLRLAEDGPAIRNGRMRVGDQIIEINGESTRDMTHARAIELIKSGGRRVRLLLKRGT
Parameters: key: below the threshold = too weak to quantify, mostly under pKd 3.1 to 4

pKd	Binder
below the threshold	DFLSTFHIRI [CIB2, O75838]
4.08	GIKKITSTAL [RPS6KA3, P51812]

Each binder was assayed against NHERF4_4, Q86UT5 (assay: holdup assay). Conditions: plain residues with an end cap or a label only (N-terminal biotin on a linker: ado-ado).
Sequence of NHERF4_4, Q86UT5 (Q86UT5 464-550): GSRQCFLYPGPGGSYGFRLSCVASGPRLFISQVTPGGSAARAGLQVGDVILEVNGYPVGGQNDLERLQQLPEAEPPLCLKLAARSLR
Parameters: key: below the threshold = too weak to quantify, mostly under pKd 3.1 to 4

pKd	Binder
4.58	DFLSTFHIRI [CIB2, O75838]
3.99	GIKKITSTAL [RPS6KA3, P51812]

The binders below were run against T5, PDZD7_3, Q9H5P4 (assay: holdup assay). Conditions: plain residues with an end cap or a label only (N-terminal biotin on a linker: ado-ado).
Parameters: key: below the threshold = too weak to quantify, mostly under pKd 3.1 to 4

pKd	Binder
below the threshold	DFLSTFHIRI [CIB2, O75838]
4.92	GIKKITSTAL [RPS6KA3, P51812]

The binders below were run against PDZRN4_1, Q6ZMN7 (assay: holdup assay). Conditions: plain residues with an end cap or a label only (N-terminal biotin on a linker: ado-ado).
Sequence of PDZRN4_1, Q6ZMN7 (Q6ZMN7 213-318): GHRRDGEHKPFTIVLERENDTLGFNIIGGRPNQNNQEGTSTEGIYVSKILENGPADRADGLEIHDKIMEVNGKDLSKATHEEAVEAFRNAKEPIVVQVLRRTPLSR
Parameters: key: below the threshold = too weak to quantify, mostly under pKd 3.1 to 4

pKd	Binder
below the threshold	DFLSTFHIRI [CIB2, O75838]
4.6	GIKKITSTAL [RPS6KA3, P51812]

The binders below were run against T6, PTPN13_1, Q12923 (assay: holdup assay). Conditions: plain residues with an end cap or a label only (N-terminal biotin on a linker: ado-ado).
Parameters: key: below the threshold = too weak to quantify, mostly under pKd 3.1 to 4

pKd	Binder
below the threshold	DFLSTFHIRI [CIB2, O75838]
below the threshold	GIKKITSTAL [RPS6KA3, P51812]

The binders below were run against T7, RAPGEF6, Q8TEU7 (assay: holdup assay). Conditions: plain residues with an end cap or a label only (N-terminal biotin on a linker: ado-ado).
Parameters: key: below the threshold = too weak to quantify, mostly under pKd 3.1 to 4

pKd	Binder
below the threshold	DFLSTFHIRI [CIB2, O75838]
below the threshold	GIKKITSTAL [RPS6KA3, P51812]

What follows are binders tested against T8, RHPN1, Q8TCX5 (assay: holdup assay). Conditions: plain residues with an end cap or a label only (N-terminal biotin on a linker: ado-ado).
Parameters: key: below the threshold = too weak to quantify, mostly under pKd 3.1 to 4

pKd	Binder
below the threshold	DFLSTFHIRI [CIB2, O75838]
3.93	GIKKITSTAL [RPS6KA3, P51812]

Each binder was assayed against T9, SIPA1L2, Q9P2F8 (assay: holdup assay). Conditions: plain residues with an end cap or a label only (N-terminal biotin on a linker: ado-ado).
Parameters: key: below the threshold = too weak to quantify, mostly under pKd 3.1 to 4

pKd	Binder
below the threshold	DFLSTFHIRI [CIB2, O75838]
below the threshold	GIKKITSTAL [RPS6KA3, P51812]

What follows are binders tested against T10, SNTG2, Q9NY99 (assay: holdup assay). Conditions: plain residues with an end cap or a label only (N-terminal biotin on a linker: ado-ado).
Parameters: key: below the threshold = too weak to quantify, mostly under pKd 3.1 to 4

pKd	Binder
3.62	DFLSTFHIRI [CIB2, O75838]
4.23	GIKKITSTAL [RPS6KA3, P51812]

What follows are binders tested against T11, TIAM2, Q8IVF5 (assay: holdup assay). Conditions: plain residues with an end cap or a label only (N-terminal biotin on a linker: ado-ado).
Parameters: key: below the threshold = too weak to quantify, mostly under pKd 3.1 to 4

pKd	Binder
4.59	DFLSTFHIRI [CIB2, O75838]
below the threshold	GIKKITSTAL [RPS6KA3, P51812]
